Results reported in patent US20220387586A1 (Hoffmann-La Roche, published 2022).

Legend:
[1] = target: T1, biotinylated PD1-ECD-AviHis (human, UniProt Q15116 25-170, biotinylated); assay: PD-L2 replacing ELISA on coated PD1-ECD-AviHis; competitor PD-L2 Fc chimera
T1 construct: also called huPD1; hu PD1; not shown: Avi-His tag
Method: (§1) After washing (3×90 μl/well with PBST-buffer) 25 μl/well goat-anti-human H+L-POD (JIR, 109-036-088) was added in 1:2000 dilution and incubated at RT for 1 h on shaker. After washing (3×90 μl/well with PBST-buffer) 25 μl/well TMB (tetramethylbenzidine) substrate (Roche, #11835033001) was added and incubated until OD 2-3. Measurement took place at 370/492 nm.

[2] = target: T1, biotinylated PD1-ECD-AviHis; assay: PD-L1 replacing ELISA on coated PD1-ECD-AviHis; competitor PD-L1 Fc chimera
Method: as §1, with “1:1000” for “1:2000”, “TMB” for “TMB (tetramethylbenzidine)”, “11835033001)” for “#11835033001)”

[3] = target: T2, biotinylated cynoPD1-ECD-Biotin (cynomolgus, UniProt B0LAJ3 25-170, biotinylated; the site and any Avi or His tag are not stated in the passages shown); assay: ELISA on coated cynoPD1-ECD-Biotin
T2 construct: also called cyPD1
T2 sequence (B0LAJ3 entry or part of it limits assumed): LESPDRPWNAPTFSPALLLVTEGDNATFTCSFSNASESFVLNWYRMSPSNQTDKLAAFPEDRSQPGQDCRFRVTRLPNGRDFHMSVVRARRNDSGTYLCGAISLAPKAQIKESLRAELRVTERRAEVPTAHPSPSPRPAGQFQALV
Method: as §1, with “JIR109-036-088)” for “109-036-088)”, “1:1000” for “1:2000”, “TMB” for “TMB (tetramethylbenzidine)”, “11835033001)” for “#11835033001)”

[4] = target: T1, biotinylated PD1-ECD-AviHis; assay: ELISA on coated biotinylated PD1-ECD-AviHis
Method: as §1, with “JIR109-036-088)/Sheep-anti-mouse-POD (GE Healthcare; NA9310)” for “109-036-088)”, “1:2000/1:1000” for “1:2000”, “TMB” for “TMB (tetramethylbenzidine)”, “(Roche Catalogue No. 11835033001)” for “(Roche, #11835033001)”

[5] = target: T3, human Fc tagged human Lag3 extra cellular domain (human, UniProt P18627 29-450, biotinylated in the epitope binning, the SA CAP SPR and the FACS competition assay); assay: SPR (Biacore T200), huLag3-Fc captured, antibody Fab fragment as analyte, 25 °C
T3 construct: In-house fusion; also called huLag3-Fc; biotinylated, huFc-tagged huLag3; not shown: human Fc tag
T3 sequence: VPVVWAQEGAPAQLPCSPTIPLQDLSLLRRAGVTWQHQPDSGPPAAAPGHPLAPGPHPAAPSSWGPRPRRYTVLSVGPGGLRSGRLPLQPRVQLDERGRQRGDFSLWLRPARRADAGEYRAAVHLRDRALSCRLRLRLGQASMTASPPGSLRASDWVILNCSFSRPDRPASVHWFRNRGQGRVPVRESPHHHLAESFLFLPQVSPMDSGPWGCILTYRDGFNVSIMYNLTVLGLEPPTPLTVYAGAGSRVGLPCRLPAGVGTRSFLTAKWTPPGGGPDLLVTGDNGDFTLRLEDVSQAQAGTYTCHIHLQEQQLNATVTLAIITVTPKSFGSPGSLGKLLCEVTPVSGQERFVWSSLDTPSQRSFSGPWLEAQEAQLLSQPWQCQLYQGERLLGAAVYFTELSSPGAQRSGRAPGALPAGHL
Method: Therefore two flow cells of a C1 biosensor chip were prepared in a Biacore T200 by immobilizing neutravidin, diluted to 25 μg/ml in acetate buffer pH 4.5, onto it using the ‘immobilization wizard’. […] Then, CaptureSelect™ Biotin Anti-IgG-Fc (Human) Conjugate was bound to the neutravidin, using a 20 μg/ml dilution in running buffer (HBS-EP+, GE Healthcare).
The method itself consisted of four commands per cycle. […] Second command: sample injection for 120s followed by a 1200s long dissociation at a flow speed of 30 μl/min. Third and fourth command: regeneration by injecting Glycine-HCl pH 1.5 for 30 seconds.

T1 sequence (Q15116 25-170): as the sequence (B0LAJ3 entry or part of it limits assumed) above, with E2D, A10P, L19V, A35T, R75Q, A144T counted along it

B1: PD1-0098 (antibody, V domains shown)
VH: DVQLQESGPGLVKPSQSLSLTCTVTGYSITSDYAWNWIRQFPGDKLEWLGYITYSGFTNYNPSLKSRISISRDTSKNQFFLQLNSVATEDTATYYCARWHGSAPWYFDYWGRGTTLTVSS
VL: DVLMTQTPLSLPVSLGDQASISCRSSQNIVHSDGNTYLEWYLQKPGQSPNLLIYKVSRRFSGVPDRFSGSGSGTDFTLKISRVEAEDLGVYYCFQGSHFPLTFGAGTKLELK
notes: Mouse hybridoma antibody
IC50 [1]: 0.045 µg/mL | IC50 [2]: 0.174 µg/mL | EC50 [3]: 0.0546 µg/mL | EC50 [4]: 0.0508 µg/mL

B2: aLAG3(0411) Fab fragment (Fab, V domains shown)
VH: EVHLLESGGGLVQPGGSLRLSCAASGFIVDDYTMNWVRQAPGKGLEWVSVISWDGGATYYADSVKGRFTISRDDFKNTLYLQMNSLRAEDTAVYYCAKGLTDDTLYGSDYWGQGTLVTVSS
VL: DIQMTQSPSSLSASVGDRVTITCRASQSIVSYLNWYQQKPGKAPKLLIYASSSLQSGVPSRFSGSGSGTDFTLTISSLQPEDFATYYCQQTYSTPLTFGGGTKVEIK
notes: also called aLAG3 (411)
koff [5]: 3.87e-05 s⁻¹

B3: MDX-26H10 (26H10) Fab fragment (Fab, V domains shown)
VH: QVQLVESGGGVVQPGRSLRLSCAASGFTFSSYGMHWVRQAPGKGLEWVAVIWYDGSNKYYADSVKGRFTISRDNSKNTLYLQMNSLRAEDTAVYYCAREWAVASWDYGMDVWGQGTTVTVSS
VL: not shown
koff [5]: 0.000399 s⁻¹

B4: aLAG3(0417) Fab fragment (Fab, V domains shown)
VH: EVQLVESGGGLVQPGGSLRLACAASGFTFSDYAMSWVRQAPGKGLEWVSGIDNSGYYTYYTDSVKGRFTISRDDVKNTLYLQMNSLRAEDTAVYLCTKTHSGLIVNDAFDIWGQGTMVTVSS
VL: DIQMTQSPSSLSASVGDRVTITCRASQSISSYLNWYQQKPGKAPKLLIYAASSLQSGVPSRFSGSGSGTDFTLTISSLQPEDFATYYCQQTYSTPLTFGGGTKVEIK
notes: also called aLAG3 (417)
koff [5]: 9.48e-05 s⁻¹

B5: aLAG3(0403) Fab fragment (Fab, V domains shown)
VH: EVQLLESGGGLVQPGGSLRLSCAASGFTFDDYTMHWVRQAPGKGLEWVSLVSWDGGGTYYTNSVKGRFTISRDNSKNTLYLQMNSLRAEDTAVYFCAKAITDTSLYGYDYWGQGILVTVSS
VL: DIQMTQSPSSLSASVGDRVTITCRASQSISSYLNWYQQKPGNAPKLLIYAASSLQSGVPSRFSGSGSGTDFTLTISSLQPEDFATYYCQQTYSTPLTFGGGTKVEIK
koff [5]: 5e-06 s⁻¹

B6: PD1-0073 (antibody, V domains shown)
VH: EVKLVESGGGLVKPGGSLKLSCAASGFTFSNYGMSWIRQTPEKGLEWVATISGGGRDTYYPDSVKGRFTISRDNVKNNLYLQMSSLRSEDTAFYYCASYYYGIDYWGQGTSVTVSS
VL: DIVMTQPHKFMSTSVGDRVRITCKASQDVTTAVAWYQQKPGQSPKLLIYWASTRHTGVPDRFTGSGSGTEFTLTISSVQAEDLALYYCQQHYSIPWTFGGGTKLEIK
IC50 [1]: 0.065 µg/mL | IC50 [2]: 0.124 µg/mL | EC50 [3]: 0.0083 µg/mL | EC50 [4]: 0.0151 µg/mL

B7: PD1-0103 (antibody, V domains shown)
VH: EVILVESGGGLVKPGGSLKLSCAASGFSFSSYTMSWVRQTPEKRLDWVATISGGGRDIYYPDSVKGRFTISRDNAKNTLYLEMSSLMSEDTALYYCVLLTGRVYFALDSWGQGTSVTVSS
VL: KIVLTQSPASLPVSLGQRATISCRASESVDTSDNSFIHWYQQRPGQSPKLLIYRSSTLESGVPARFSGSGSRTDFTLTIDPVEADDVATYYCQQNYDVPWTFGGGTKLEIK
notes: Mouse hybridoma antibody; also called murine anti-PD1 antibody PD1-0103
IC50 [1]: 0.051 µg/mL | IC50 [2]: 0.182 µg/mL | EC50 [3]: 0.0369 µg/mL | EC50 [4]: 0.0337 µg/mL

B8: PD1-0102 (antibody, V domains shown)
VH: DVQLQESGPDLVKPSQSLSLTCTVTGYSITSGYSWHWIRQFPGNKLEWMGFIHSSGDTNYNPSLKSRISFTRDTSKNQFFLQLSSLTDEDTATYYCATYRNWYFDVWGAGTTVTVSS
VL: DIVMTQSPSSLTVTAGEKVTMRCKSSQSLLNSGTQKNYLTWYQQKPGQPPKLLIYWASTRESGVPNRFTGSGSGTDFTLTISSVQAEDLSVYYCQSDYTFPLTFGGGTKLELK
IC50 [1]: 0.14 µg/mL | IC50 [2]: > 35.5 µg/mL | EC50 [3]: 0.0527 µg/mL | EC50 [4]: 0.0342 µg/mL

B9: MDX-25F7 (25F7) Fab fragment (Fab, V domains shown)
VH: QVQLQQWGAGLLKPSETLSLTCAVYGGSFSDYYWNWIRQPPGKGLEWIGEINHNGNTNSNPSLKSRVTLSLDTSKNQFSLKLRSVTAADTAVYYCAFGYSDYEYNWFDPWGQGTLVTVSS
VL: EIVLTQSPATLSLSPGERATLSCRASQSISSYLAWYQQKPGQAPRLLIYDASNRATGIPARFSGSGSGTDFTLTISSLEPEDFAVYYCQQRSNWPLTFGQGTNLEIK
koff [5]: 0.000386 s⁻¹

B10: PD1-0069 (antibody, V domains shown)
VH: QVQLQQSGPELVRPGVSVKISCKGSGYTFTDYAMHWVKQSHARTLEWIGVISTYSGDTNYNQKFKDKATMTVDKSSSTAYLELARMTSEDSAIYYCARLGITTGFAYWGQGTLVTVSA
VL: DIVLTQSPASLAVSLGQRATISCRASKGVSTSSYSFMHWYQQKPRQPPKLLIKYASYLESGVPARFSGSGSGTDFTLNIHPVEEEDAATYYCHHSREFPWTFGGGTKLEIK
notes: Mouse hybridoma antibody
IC50 [1]: 0.089 µg/mL | IC50 [2]: 0.225 µg/mL | EC50 [3]: 0.0227 µg/mL | EC50 [4]: 0.0457 µg/mL

B11: PD1-0050 (antibody, V domains shown)
VH: DVQLQESGPGLVKPSQSLSLTCTVTGYSITSDYAWNWIRQFPGNKLEWMGYITYTGRTSYNPSLKSRISITRDTSKNQFFLQLNSVTTEDTATYYCAREMDYYGSTLDYWGQGTTLTVSS
VL: KIVLTQSPASLAVSLRQRATISCRASESVDRYGNSFIHWYQQKPGQPPKVLIYRASNLESGFPARFSGSGSRTDFTLTIDPVEADDAATYYCQQNNEDPYTFGSGTKLEIK
IC50 [1]: 0.034 µg/mL | IC50 [2]: 0.128 µg/mL | EC50 [3]: 0.0098 µg/mL | EC50 [4]: 0.0179 µg/mL
